Test results reported in patent US9217139B2, “Extracellularly secreted nuclease” (JAPAN AGENCY FOR MARINE-EARTH SCIENCE AND TECHNOLOGY, priority 2010, dated 2015).

B1: NucS: low-molecular-weight nucleolytic enzyme, about 17 to 21 kDa, secreted by Streptomyces sp. MBE174; SEQ ID NO. 3 (protein)
chain: MPKLYARRRFAVLAALTGLIASAGLFHGPAASAALPTPVSAATARGYLASLKVAPENRTGYKRDLFPHWITQSGTCNTRETVLKRDGTNVVTDAACAATSGSWYSPFDGATWTAASDVDIDHLVPLAEAWDSGASAWTTAQRQAFANDLTRPQLLAVTDTVNQSKGDKDPAEWMPPRAAYHCTYVRAWVQVKYYYGLSVDTAEKTALTNRLAGC
modifications: Streptmyces sp. MBE174
B2: NucL: nucleolytic enzyme of about 66.5 kDa secreted by Streptomyces sp. MBE174; SEQ ID NO. 4 (protein)
chain: MASQSVTRLAALTVAATCSAASVVVLGPPAHADSVRIHDIQGTTRISPYAGRQVADVPGVVTGVRDHGSSRGFWFQDPRPDDDPATSEGVFVFTGSAPGVEAGDAVTVSGTVSEFVPGGTASGNQSLTEITRPTVTVVSRGNPVPDPVVVSARSVPHAYAPAGDAAANGSVNALPLRPDRYALDYYESLEGMNVQVADARVVGATDPYTELWVTVKPGENASPRGGTVYGSRDAQNTGRLQIQTLGVPAGFPAADVGDTLAGATTGPLDYNQFGGYTLVARSLGTLTAGGLARETTREQHRDELSVATYNVENLDPSDGTFAAHAEAIVRNLRSPDIVSLEEIQDDNGATDDGTVTAGVTVGKLIDAVVAAGGPRYDWRSVDPVDKADGGQPGGNIRQVFLFDPRRVSFADRPGGDAVTATGVVKVRGKAALTHSPGRVDPANPAWLNSRKPLAGEFSFRGRTVFVIANHFASKGGDQGLTSQYQPPARSSETQRHLQATAVNTFVKQILAVQKNADVIALGDINDFEFSGTTERLEAGGALWSAVRSLPPGERYSYVYQGNSQVLDQILVSPSIRRGHLSYDSVHINAEFHDQISDHDPQVLRYRP
modifications: Streptmyces sp. MBE174

Key:
[1] = isoelectric point by Novex IEF pH-3-10 gel; type: physicochemical
Method: The molecular weight was measured by gel filtration chromatography with the use of Superdex G75 (manufactured by GE Healthcare). An elution position corresponding to a molecular weight of about 16 kDa was confirmed as a peak top from a column. Since the value was much coincident with a molecular weight (about 17 to 21 kDa) of an enzyme produced on SDS-PAGE, it can be determined that NucS exists as monomer. The isoelectric point was measured by using Novex (Registered Trademark) IEF pH-3-10 gel (manufactured by Invitrogen); and pl was 10.
The specific activity of NucL was 5.6×10^4 U/mg-protein at 37 degrees Celsius in 20 mM of Tris/HCl at pH 8.5 that contains 1 mM of MgCl2 and 1 mM of CaCl2. The isoelectric point was measured by using Novex (Registered Trademark) IEF pH-3-10 gel (manufactured by Invitrogen); and then pl was 7.0. Then, it was determined that a N-terminal amino acid sequence of the purified enzyme was DSVRIHDIQGTTR. The sequence matched 12 out of 13 amino acids of putative protein (putative secreted hydrolase) coded on a genome of Streptomyces scabiei 87.22, and of putative protein (large secreted protein) coded on a genome of S. avermitilis MA-4680.

[2] = system: Deoxyribonucleic acid sodium salt from salmon testes; experiment: effects of pH on enzyme activity; type: biochemical; conditions: 25 degrees Celsius, 15 minutes, 1 mM MgCl2, 1 mM CaCl2
Method: At each level of pH, the nucleic-acid degradation activity was measured at 25 degrees Celsius for 15 minutes by using, as substrate, Deoxyribonucleic acid sodium salt from salmon testes 0.4 mg/mL (manufactured by Sigma-Aldrich; Cat no. D1626-1G) in 20 mM of the following solution containing 1 mM of MgCl2 and 1 mM of CaCl2: 2-morpholino ethanesulfonic acid; monohydrate/NaOH(MES, pH 5.5 to 7.0); 3-morpholino propanesulfonic acid/NaOH (MOPS, pH 7 to 8); N-tris(hydroxymethyl)methyl-3-aminopropanesulfonic acid/NaOH (TAPS, pH 8 to 9); N-cyclohexyl-2-aminoethanesulfonic acid/NaOH (CHES, pH 9 to 9.5); or N-cyclohexyl-3-aminopropanesulfonic acid/NaOH (CAPS, 9.5 to 10).

[3] = effects of temperature on enzyme activity; type: biochemical; conditions: 15 minutes, 20 mM Tris/HCl pH 8.5, 1 mM MgCl2, 1 mM CaCl2
Method: Under each temperature condition, the nucleic-acid degradation activity was measured for 15 minutes in 20 mM of Tris/HCl at pH 8.5 that contained 1 mM of MgCl2 and 1 mM of CaCl2.

[4] = system: Deoxyribonucleic acid sodium salt from salmon testes; experiment: effects of divalent metal salt on enzyme activity; type: biochemical; conditions: 20 mM Tris/HCl pH 8.5, 1 mM CaCl2, 25 degrees Celsius
Method: Effects of divalent metal salt on NucS and NucL were examined. NucS or NucL was added to a reaction solution that was obtained by adding, as substrate, Deoxyribonucleic acid sodium salt from salmon testes 0.4 mg/mL (manufactured by Sigma-Aldrich; Cat no. D1626-1G) into 20 mM of Tris/HCl at pH 8.5 that contained 1 mM of CaCl2 and 0 to 20 mM of MgCl2 or MnCl2; and the mixture was incubated in ice for 30 minutes. Then, the nucleic-acid degradation activity was measured at 25 degrees Celsius for 15 minutes. […] Incidentally, in the present test, in order to enhance the stability of the enzymes, 1 mM of CaCl2 was added to all the reaction solutions.

[5] = system: Deoxyribonucleic acid sodium salt from salmon testes; experiment: effects of phosphate on enzyme activity; type: biochemical
Method: Effects of phosphate on NucS and NucL were examined. In 0 to 40 mM of potassium phosphate buffer at pH 8.5 that contained 1 mM of MgCl2 and 1 mM of CaCl2, the nucleic-acid degradation activity was measured at 25 degrees Celsius for 15 minutes by using, as substrate, Deoxyribonucleic acid sodium salt from salmon testes 0.4 mg/mL (manufactured by Sigma-Aldrich; Cat no. D1626-1G). […] Meanwhile, compared with NucS, NucL was excellent in resistance to phosphate. NucL could maintain 50 percent of activity even in the presence of 10 mM of potassium phosphate (referring to FIG. 11).

[6] = system: Circular plasmid DNA (pUC 18); experiment: degradation of circular plasmid DNA (agarose gel electrophoresis); type: biochemical; conditions: single enzyme, 25 degrees Celsius, 15 minutes; NucL level up to 0.5 U
Method: Circular plasmid DNA (pUC 18) that had been purified by using a plasmid purification kit (HiSpeed (Registered Trademark) Plasmid Midi Kit; manufactured by QIAGEN, Cat no. 12643) was used as substrate to analyze nucleic-acid degradation styles of NucS and NucL. According to the standard specific activity measurement method, the enzyme solutions that were different in enzyme level as shown in the table below were added to a plasmid solution (about 2 to 10 μg). Then, a nucleic-acid degradation reaction was carried out at 25 degrees Celsius for 15 minutes. After the degradation, a reaction solution was subjected to a 1-percent agarose gel electrophoresis, and the degradation manner of the degraded DNA was analyzed.
Next, the enzyme level of NucL was increased to 0.5 U, and a test was conducted to examine if the plasmid could be completely degraded (referring to FIG. 13).

[7] = system: salmon DNA (double-stranded DNA) and thermally-denatured DNA (single-stranded DNA); experiment: reactivity test for single-stranded and double-stranded DNA; type: biochemical; conditions: 15-minute standard specific activity measurement method
Method: With the use of a 15-minute standard specific activity measurement method, the reactivity of each enzyme was tested for salmon DNA (double-stranded DNA) that was dissolved at low temperatures, as well as for the same DNA (single-stranded DNA) that had been subjected to thermal denaturation at 95 degrees Celsius for 10 minutes. […] That is, it can be said that NucL is an enzyme that efficiently works on single-stranded DNA.

[8] = system: RNA (mRNA derived from yeast); experiment: degrading activity for RNA; type: biochemical
[9] = phosphodiesterase activity test; type: biochemical; conditions: 100 mM Tris/HCl pH 8.5, 1 mM MgCl2, 1 mM CaCl2, 1 percent glycerol, 25 degrees Celsius
Method: (§1) Bis(p-nitrophenyl)phosphate and p-nitrophenylphosphate were used as substrate. The method of Tomoyeda et al. (referring to Archives of biochemistry and biophysics. 131(1), 191-202, 1969; the contents of the document are incorporated herein by reference) was used. In 100 mM of Tris/HCl at pH 8.5 that contained 1 mM of MgCl2, 1 mM of CaCl2, and 1 percent of glycerol, with the use of a reaction solution that contained 0.2 percent of the above substrate, the phosphodiesterase activity and phosphatase activity of both enzymes were measured at 25 degrees Celsius.

[10] = phosphatase activity test; type: biochemical; conditions: 100 mM Tris/HCl pH 8.5, 1 mM MgCl2, 1 mM CaCl2, 1 percent glycerol, 25 degrees Celsius
Method: as §1

Molecule	isoelectric point (pl) [1]	optimum reaction pH [2]	optimum reaction temperature [3]	activity in the presence of 1 to 2 mM of MnCl2 compared with MgCl2 [4]	requirement of divalent metal salt for activation [4]	phosphate concentration that made the enzyme inactive ([5]; potassium phosphate buffer pH 8.5, 1 mM MgCl2, 1 mM CaCl2, 25 degrees Celsius) [mM]	degradation of circular plasmid DNA, supercoiled or relaxed type [6]	efficiency of degrading thermally-denatured DNA compared with native DNA [7]	RNA degrading activity [8]	phosphodiesterase activity [9]	phosphatase activity [10]	activity maintained in the presence of phosphate ([5]; 10 mM of potassium phosphate, pH 8.5, 25 degrees Celsius) [%]
B1	10	around 8.5	around 55 degrees Celsius	substantially the same level of activity	required divalent metal salt for activation	≥ 0.5	could completely degrade the plasmids	at the same level of efficiency	showed RNA degrading activity	does not have	does not have	
B2	7.0	around 8.8	around 45 degrees Celsius		required divalent metal salt for activation		could completely degrade the plasmids	about five times higher	did not show RNA degrading activity	has	has	50
